Results: patent publication US20260234660A1, “TREATMENT OF MUSCLE RELATED DISORDERS WITH ANTI-HUMAN CACNG1 ANTIBODIES” (Regeneron Pharmaceuticals, Inc., priority 2023, published 2026)

Key:
[1] = target: human CACNG1, cell surface-expressed (human) (UniProt Q06432)
[2] = target: human CACNG1, cell surface-expressed (human) (UniProt Q06432); remark: listed apart in the source
[3] = target: human CACNG1, cell surface-expressed (human) (UniProt Q06432); remark: listed apart in the source

human CACNG1, cell surface-expressed (human), sequence (Q06432 whole entry): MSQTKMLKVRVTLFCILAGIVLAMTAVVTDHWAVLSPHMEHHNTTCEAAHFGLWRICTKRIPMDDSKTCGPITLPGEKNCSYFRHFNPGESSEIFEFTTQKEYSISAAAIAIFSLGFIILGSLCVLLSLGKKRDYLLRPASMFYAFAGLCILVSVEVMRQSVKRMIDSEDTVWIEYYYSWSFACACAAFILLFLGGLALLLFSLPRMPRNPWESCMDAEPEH

- EC50; androgen receptor luciferase reporter (RLU), hCACNG1.AR.Luc LNCaP cells, 24 hours [1]: 7.83 nM
- EC50; androgen receptor luciferase reporter (RLU), hCACNG1.AR.Luc LNCaP cells, 48 hours [2]: 6.95 nM
- EC50; androgen receptor luciferase reporter (RLU), hCACNG1.AR.Luc LNCaP cells, 72 hours [3]: 5.44 nM
B1: REGN14571-M3004 (antibody, from a related filing, V domains shown, part only)
VH: QVQLQESGPGLVKPSETLSLTCTVSGDSINNYYWTWLRQPPGKGLEWIGYIYYSGSANYNPSLKSRVTISVDTSKNQFSLKLNSVTAADTAVYYCARGAVKYFRHWGQGTLVTVSS
VL: EIVLTQSPGTLSLSPGERATLSCRASQTINHNNLAWYQQRPGQAPRLLIYGASNRATAIPDRFSGSGSGTDFTLTISRLEPEDFEVYSCQQYGSLPLTFGGGTKVEIKR
